Measurements: patent US8637043B2, “Compositions useful as ligands for the formyl peptide receptor like 1 receptor and methods of use thereof” (Chemocentryx, Inc., priority 2001, dated 2014)
Where “and” joins values, the source holds several entries; their conditions need not be identical. Identical values can stand only once. Like-named read-outs stand apart in the source and are kept apart here. Ends that are not written are not given here.

Tests used:
human monocytes = test: Calcium flux in human monocytes; type: cell-based; conditions: for calcium flux: human monocytes, Example 8; for calcium release: freshly prepared human monocytes, up to 250 nM
Procedure: (§1) Ca^2+ mobilization responses were performed using the intracellular ratiometric fluorescent dye, lndo-1. Cells were loaded with Indo-1/AM (3 μM; Molecular Probes, Eugene, Oreg.) in culture medium (45 min, 20° C., 10^7 cells/ml). After dye loading, cells were washed once with 10 ml PBS) and resuspended at 10^6 cell/ml in HBSS containing 1% FBS. Cytosolic [Ca^2+] release was determined using excitation at 350 nm using a Photon Technology International fluorimeter (excitation at 350 nm, ratioed dual emission at 400 and 490 nm).
The human recombinant chemokines, leukotactin, MlP-1α, three known CKβ8 variants CKβ8(1-99), CKβ8(25-99), CKβ8-1(1-116) and a novel NH2-terminal truncated form of CKβ8-1, CKβ8-1 (25-116) were obtained from R&D Systems (Minneapolis, Minn.). Human monocytes were generated from buffy coats (Stanford Blood Center, Palo Alto, Calif.) following a standard protocol. Briefly, PBMC were isolated by standard density gradient centrifugation (Ficoll-Paque-Plus, Pharmacia). Monocytes were purified using CD14 Microbeads (Miltenyi, Auburn, Calif.) magnetic positive selection. Human neutrophils were isolated from fresh peripheral blood from healthy individuals by gradient centrifugation on Ficoll-Hypaque (Hyclone, Calif.).
The activity of the CCL23 variants was tested on freshly prepared human monocytes and neutrophils using the calcium flux test described in Example 1.
Human monocytes were either generated from buffy coats (Stanford Blood Center, Palo Also, Calif.) or from fresh blood of healthy individuals following a standard protocol. Briefly, PBMC were isolated by a Ficoll-Paque gradient centrifugation (Ficoll-Paque-Plus, Pharmacia). Monocytes were purified by CD14 Microbeads (Miltenyi) magnetic positive selection. Human neutrophils were isolated from fresh blood by dextran sedimentation and gradient centrifugation Ficoll-Paque gradient centrifugation. All cells were washed and resuspended (1×10^7/ml) in RPMI medium with 10% FBS.
as §1, with “an” for “the”, “Indo-1.” for “lndo-1.”, “Probes (Eugene, Oreg.))” for “Probes, Eugene, Oreg.)”, “cells/mi).” for “cells/ml).”, “(10” for “with 10”

immature Dendritic Cells = test: Calcium mobilization, immature dendritic cells; type: cell-based, human
Procedure: Human recombinant CKβ8-1(25-116) chemokine was obtained from R&D Systems (Minneapolis, Minn.). The peptide SHAAGtides SEQ ID NO:1 and SEQ ID NO:6 and a control protein (the reverse sequence of SEQ ID NO:1) were synthesized and HPLC-purified using routine techniques as described in Sambrook et al., 1989, and Ausubel et al., 1999.
Immature DCs were derived by culturing CD14+ monocytes in the presence of GM-CSF and IL4. Briefly, monocytes were cultured in a T-175 flask at 10^6 cells/ml in RPMI/10% FCS. Recombinant human GM-CSF and IL4 were added on day 0, 2, 4 and 6 to a final concentration of 1000 u/ml and 500 u/ml, respectively. Cells were harvested on day 7 as immature DCs and characterized for surface protein expression by FACS analysis. DC maturation was carried out by culturing day 6 immature DCs in macrophage-conditioned medium (MCM). Briefly, day 6 immature DCs were harvested by centrifugation and resuspended in MCM at 10^6 cells/ml. The medium was supplemented with 1000 u/ml of GM-CSF and 500 u/ml IL4. After three more days of culture, cells were harvested as mature DCs and characterized by surface protein expression flow cytometry.
as §1, with “an” for “the”, “Indo-1.” for “lndo-1.”, “Probes (Eugene, Oreg.))” for “Probes, Eugene, Oreg.)”, “cells/mi).” for “cells/ml).”, “(10” for “with 10”

monocytes [1] = test: 125I-MIP-1α binding competition, monocytes; set-up: species or system human; conditions: for IC50: Monocytes; for MIP-1α displacement on monocytes compared with HEK293-CCR1 cells: comparison in words
Procedure: The binding characteristics of CCL23 variants was compared in human CCR1 expressing cells. The ability of MIP-1α and the CCL23 variants CKβ8(1-99), CKβ8(25-99), CKβ8-1(1-116) and CKβ8-1(25-116) to compete with ^125I-MIP-1α binding was investigated in HEK293-CCR1 cells (prepared as in Example 1). The cells were incubated with ^125I-labeled MIP-1α (final conc. {dot over (˜)}0.05 nM) in the presence of unlabeled chemokine (3 hours at 4° C.: 25 mM HEPES, 140 mM NaCl, 1 mM CaCl2, 5 mM MgCl2 and 0.2% BSA, adjusted to pH 7.1). Reactions mixtures were aspirated onto PEI-treated GF/B glass filters using a cell harvester (Packard). The filters were washed twice (25 mM HEPES, 500 mM NaCl, 1 mM CaCl2, 5 mM MgCl2, adjusted to pH 7.1). Scintillant (MicroScint-10; 35 μl) was added to dried filters and the filiters counted in a Packard Topcount scintillation counter. Data were analyzed and plotted using Prism software (GraphPad Software, San Diego, Calif.).
Simiar binding competition tests were conducted on monocytes and neutrophils. These cells were prepared as in Example 2.

monocytes [2] = test: Cross-desensitization with leukotactin, monocytes; type: cell-based, human
Procedure: (§2) In cross-desensitization tests tests, cells were stimulated sequentially with leukotactin and then the chemokines CKβ8(1-99), CKβ8(25-99), CKβ8-1(1-116), and CKβ8-1(25-116). On HEK293-CCR1 transfectants (prepared as in Example 1), leukotactin induced similar patterns of receptor desensitization to all variants.
(§3) Similar receptor cross-desensitization tests were performed using both monocytes and neutrophils (prepared as in Example 2).

neutrophils = test: Cross-desensitization with leukotactin, neutrophils; type: cell-based, human
Procedure: as §2, §3

Row | Molecule | calcium flux (human monocytes) | calcium flux (immature Dendritic Cells) | calcium release (human monocytes) | maximal receptor stimulation compared with leukotactin (human monocytes; monocytes, 100 nM) | IC50 (monocytes [1]) | MIP-1α displacement on monocytes compared with HEK293-CCR1 cells (monocytes [1]) | MIP-1α displacement activity on monocytes versus HEK293-CCR1 cells (monocytes [1]; fold higher on monocytes) | desensitization by leukotactin prestimulation (monocytes [2]) | desensitization by leukotactin prestimulation (neutrophils) | calcium flux (immature Dendritic Cells; listed as CKβ8-1 (25-116))
1 | MLWRRKIGPQMTLSHAAG [SEQ ID NO: 1] | robust calcium flux | partially active |  |  |  |  |  |  |  | 
2 | MLWRRKIGPQMTLSHAAY [SEQ ID NO: 6] | robust calcium flux | partially active |  |  |  |  |  |  |  | 
3 | CKβ8-1(25-116): novel NH2-terminal truncated form of CKβ8-1, SEQ ID NO: 16, human recombinant chemokine (protein, listed as Homo sapiens) MLWRRKIGPQMTLSHAAGFHATSADCCISYTPRSIPCSLLESYFETNSECSKPGVIFLTKKGRRFCANPSDKQVQVCMRMLKLDTRIKTRKN | robust calcium flux | induces Ca^2+ release | unique calcium flux with extended calcium release | at least two fold higher | 5 nM and 5.1 nM | higher MIP-1α displacement activities | over 10 fold | did not desensitize | did not desensitize | partially active
4 | CKβ8(25-99): known truncated CKβ8 variant, human recombinant chemokine from R&D Systems (protein, listed as Homo sapiens) RFHATSADCCISYTPRSIPCSLLESYFETNSECSKPGVIFLTKKGRRFCANPSDKQVQVCMRMLKLDTRIKTRKN |  |  | slightly higher calcium stimulation |  | 0.25 nM |  |  | completely desensitized | inactive | 
5 | CKβ8-1(1-116): alternatively spliced form of CKβ8, 116 amino acids, human recombinant chemokine (protein, listed as Homo sapiens) RVTKDAETEFMMSKLPLENPVLLDMLWRRKIGPQMTLSHAAGFHATSADCCISYTPRSIPCSLLESYFETNSECSKPGVIFLTKKGRRFCANPSDKQVQVCMRMLKLDTRIKTRKN |  |  | poor activity |  | 55 nM | higher MIP-1α displacement activities |  | completely desensitized | inactive | 
